# Measured values published in patent US7166454.
# T1: peptide substrate KSEVNLDAEFRK derived from the sequence of Swedish amyloid precursor protein
# T1 chain: KSEVNLDAEFRK
# B1: β-secretase refolded from E. coli overexpression (protein)
# chain: TQHGIRLPLRSGLGGAPLGLRLPRETDEEPEEPGRRGSFVEMVDNLRGKSGQGYYVEMTVGSPPQTLNILVDTGSSNFAVGAAPHPFLHRYYQRQLSSTYRDLRKGVYVPYTQGKWEGELGTDLVSIPHGPNVTVRANIAAITESDKFFINGSNWEGILGLAYAEIARPDDSLEPFFDSLVKQTHVPNLFSLQLCGAGFPLNQSEVLASVGGSMIIGGIDHSLYTGSLWYTPIRREWYYEVIIVRVEINGQDLKMDCKEYNYDKSIVDSGTTNLRLPKKVFEAAVKSIKAASSTEKFPDGFWLGEQLVCWQAGTTPWNIFPVISLYLMGEVTNQSFRITILPQQYLRPVEDVATSQDDCYKFAISQSSTGTVMGAVIMEGFYVVFDRARKRIGFAVSACHVHDEFRTAAVEGPFVTLDMEDCGYNIPQTDEST
# Molecular target: T1, peptide substrate KSEVNLDAEFRK derived …
protein,measurement,value
B1,specificity constant (Kcat/Km),1800 ± 100 M⁻¹ s⁻¹
